We go through 15 molecules from patent publication US20070092518A1 (published 2007).

To fix the notation:
B1: SEQ ID NO 121 (Fab, V domains shown)
VH: EVQLVESGGGLVQPGGSLRLSCAASQFTFSNHYMNWVRQAPGKGLEWIGEIRSKSINSATHYAESVKGRFIISRDDNGNDLYLEMNSLKTEDTAEYYCAQNYYGSTYDYWGQGTLVTVS
VL: EIVLTQSPDFQSVTPKEKVTITCRASQFVGSSIHWYQQKPDQSPKLLIKYASESMSGVPSRFSGSGSGTDFTFTISSLEAEDAATYYCQQSHSWPFTFGPGTKVDIK
notes: Fab, E. coli lysate
B2: SEQ ID NO 23 (Fab, V domains shown)
VH: EVQLTESGGGLVQPGGSLRLSCAASGSIFSNHWMNWVRQAPGKGLEWIGEIRSKSIYGATHYAESVKGRFIISRDDNGTDLYLEMNSLKTEDTAEYYCARNYYGSTYDYWGQGTLVTVS
VL: EIVLTQSPDFQSVTPKEKVTITCRASQFVGSSIHWYQQKPDQSPKLLIKYASESMSGVPSRFSGSGSGTDFTFTISSLEAEDAATYYCQQSHSWPFTFGPGTKVDIK
notes: Fab, E. coli lysate
B3: SEQ ID NO 17 (Fab, V domains shown)
VH: EVQLTESGGGLVQPGGSLRLSCRASGFTFSNHWMNWVRQAPGKGLEWIGEIRSKSSYSATHYAESVKGRFIISRDDNKTSLYLEMNSLKTEDTAEYYCARNYYGSTPDYWGQGTLVTVS
VL: EIVLTQSPDFQSVTPKEKVTITCRASQFVGSSIHWYQQKPDQSPKLLIKYASESMSGVPSRFSGSGSGTDFTFTISSLEAEDAATYYCQQSHSWPFTFGPGTKVDIK
notes: Fab, E. coli lysate
B4: SEQ ID NO 18 (Fab, V domains shown)
VH: EVQLVESGGGLVQPGGSLRLSCRASQFTFSNHYMNWVRQAPGKGLEWIGEIRSKSSNGATSYAESVKGRFIISRDGNGNSLTLEMNSLKTEDTAEYYCARNYYGSTYDYWGQGTLVTVS
VL: EIVLTQSPDFQSVTPKEKVTITCRASQFVGSSIHWYQQKPDQSPKLLIKYASESMSGVPSRFSGSGSGTDFTFTISSLEAEDAATYYCQQSHSWPFTFGPGTKVDIK
notes: Fab, E. coli lysate
B5: SEQ ID NO 22 (Fab, V domains shown)
VH: EVQLVESGGGLVQPGGSLRLSCRASGSTFSNHWMNWVRQAPGKGLEWIGEIRSKSSNSATHYAESVKGRFIISRDDNGNSLTLEMNSLKTEDTAEYYCAQNYYGSTYDYWGQGTLVTVS
VL: EIVLTQSPDFQSVTPKEKVTITCRASQFVGSSIHWYQQKPDQSPKLLIKYASESMSGVPSRFSGSGSGTDFTFTISSLEAEDAATYYCQQSHSWPFTFGPGTKVDIK
notes: Fab, E. coli lysate
B6: SEQ ID NO 14 (Fab, V domains shown)
VH: EVQLTESGGGLVQPGGSLRLSCAASQFTFSNHWMNWVRQAPGKGLEWIGEIRSKSIYGATHYAESVKGRFIISRDGNGNDLYLEMNSLKTEDTAEYYCARNYYGSTPDYWGQGTLVTVS
VL: EIVLTQSPDFQSVTPKEKVTITCRASQFVGSSIHWYQQKPDQSPKLLIKYASESMSGVPSRFSGSGSGTDFTFTISSLEAEDAATYYCQQSHSWPFTFGPGTKVDIK
notes: Fab, E. coli lysate
B7: SEQ ID NO 13 (Fab, V domains shown)
VH: EVQLTESGGGLVQPGGSLRLSCAASGSIFSNHYMNWVRQAPGKGLEWIGEIRSKSSNSATHYAESVKGRFIISRDDNKTDLYLEMNSLKTEDTAEYYCARNYYGSTYDYWGQGTLVTVS
VL: EIVLTQSPDFQSVTPKEKVTITCRASQFVGSSIHWYQQKPDQSPKLLIKYASESMSGVPSRFSGSGSGTDFTFTISSLEAEDAATYYCQQSHSWPFTFGPGTKVDIK
notes: Fab, E. coli lysate
B8: SEQ ID NO 20 (Fab, V domains shown)
VH: EVQLVESGGGLVQPGGSLRLSCRASGFTFSNHYMNWVRQAPGKGLEWIGEIRSKSSNSATSYAESVKGRFIISRDDNGNDLTLEMNSLKTEDTAEYYCAQNYYGSTPDYWGQGTLVTVS
VL: EIVLTQSPDFQSVTPKEKVTITCRASQFVGSSIHWYQQKPDQSPKLLIKYASESMSGVPSRFSGSGSGTDFTFTISSLEAEDAATYYCQQSHSWPFTFGPGTKVDIK
notes: Fab, E. coli lysate
B9: SEQ ID NO 4 (Fab, V domains shown)
VH: EVQLTESGGGLVQPGGSLRLSCRASGFIFSNHWMNWVRQAPGKGLEWIGEIRSKSSYSATSYAESVKGRFIISRDDNKTSLYLEMNSLKTEDTAEYYCAQNYYGSTYDYWGQGTLVTVS
VL: EIVLTQSPDFQSVTPKEKVTITCRASQFVGSSIHWYQQKPDQSPKLLIKYASESMSGVPSRFSGSGSGTDFTFTISSLEAEDAATYYCQQSHSWPFTFGPGTKVDIK
notes: Fab, E. coli lysate
B10: SEQ ID NO 11 (Fab, V domains shown)
VH: EVQLTESGGGLVQPGGSLRLSCAASGFIFSNHWMNWVRQAPGKGLEWIGEIRSKSINGATSYAESVKGRFIISRDDNKTSLYLEMNSLKTEDTAEYYCAQNYYGSTYDYWGQGTLVTVS
VL: EIVLTQSPDFQSVTPKEKVTITCRASQFVGSSIHWYQQKPDQSPKLLIKYASESMSGVPSRFSGSGSGTDFTFTISSLEAEDAATYYCQQSHSWPFTFGPGTKVDIK
notes: Fab, E. coli lysate
B11: SEQ ID NO 21 (Fab, V domains shown)
VH: EVQLTESGGGLVQPGGSLRLSCAASQFTFSNHWMNWVRQAPGKGLEWIGEIRSKSIYGATHYAESVKGRFIISRDDNGNDLYLEMNSLKTEDTAEYYCARNYYGSTYDYWGQGTLVTVS
VL: EIVLTQSPDFQSVTPKEKVTITCRASQFVGSSIHWYQQKPDQSPKLLIKYASESMSGVPSRFSGSGSGTDFTFTISSLEAEDAATYYCQQSHSWPFTFGPGTKVDIK
notes: Fab, E. coli lysate
B12: SEQ ID NO 8 (Fab, V domains shown)
VH: EVQLTESGGGLVQPGGSLRLSCRASGSTFSNHYMNWVRQAPGKGLEWIGEIRSKSINGATHYAESVKGRFIISRDGNGNDLYLEMNSLKTEDTAEYYCAQNYYGSTYDYWGQGTLVTVS
VL: EIVLTQSPDFQSVTPKEKVTITCRASQFVGSSIHWYQQKPDQSPKLLIKYASESMSGVPSRFSGSGSGTDFTFTISSLEAEDAATYYCQQSHSWPFTFGPGTKVDIK
notes: Fab, E. coli lysate
B13: SEQ ID NO 10 (Fab, V domains shown)
VH: EVQLTESGGGLVQPGGSLRLSCRASGFIFSNHYMNWVRQAPGKGLEWIGEIRSKSINSATSYAESVKGRFIISRDDNKNDLTLEMNSLKTEDTAEYYCARNYYGSTYDYWGQGTLVTVS
VL: EIVLTQSPDFQSVTPKEKVTITCRASQFVGSSIHWYQQKPDQSPKLLIKYASESMSGVPSRFSGSGSGTDFTFTISSLEAEDAATYYCQQSHSWPFTFGPGTKVDIK
notes: Fab, E. coli lysate
B14: SEQ ID NO 7 (Fab, V domains shown)
VH: EVQLTESGGGLVQPGGSLRLSCAASQFTFSNHWMNWVRQAPGKGLEWIGEIRSKSSNSATHYAESVKGRFIISRDDNKTDLYLEMNSLKTEDTAEYYCAQNYYGSTYDYWGQGTLVTVS
VL: EIVLTQSPDFQSVTPKEKVTITCRASQFVGSSIHWYQQKPDQSPKLLIKYASESMSGVPSRFSGSGSGTDFTFTISSLEAEDAATYYCQQSHSWPFTFGPGTKVDIK
notes: Fab, E. coli lysate
B15: SEQ ID NO 5 (Fab, V domains shown)
VH: EVQLTESGGGLVQPGGSLRLSCAASQFTFSNHWMNWVRQAPGKGLEWIGEIRSKSINSATHYAESVKGRFIISRDDNKNSLTLEMNSLKTEDTAEYYCARNYYGSTYDYWGQGTLVTVS
VL: EIVLTQSPDFQSVTPKEKVTITCRASQFVGSSIHWYQQKPDQSPKLLIKYASESMSGVPSRFSGSGSGTDFTFTISSLEAEDAATYYCQQSHSWPFTFGPGTKVDIK
notes: Fab, E. coli lysate

T1 sequence (P01375 77-233 limits assumed): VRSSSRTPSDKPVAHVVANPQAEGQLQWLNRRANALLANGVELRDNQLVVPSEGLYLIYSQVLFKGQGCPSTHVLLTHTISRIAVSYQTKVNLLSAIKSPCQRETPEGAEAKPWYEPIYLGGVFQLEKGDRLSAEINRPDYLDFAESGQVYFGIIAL

This experiment concerns the target T1, human tumor necrosis factor-α (rHuTNF-alpha, Biosource) (human, UniProt P01375 77-233).
T1 construct: Bought recombinant protein coated on ELISA plates; The TNFα of the Biacore assay is not described further; also called TNFα; human TNFα
As to the kind of experiment: solid-phase ELISA, Fab lysate on coated rHuTNF-alpha. The method, then: The Fab libraries were cloned into pTrcHis2A (Cat. No. V365-20, Invitrogen, Carlsbad, Calif.). Proteins were expressed in E. coli and solid-phase ELISA was used to assess Fab binding to human TNFα. Briefly, 96-well plates were coated overnight at 4° C. with 1 μg/ml of rHuTNF-alpha (Biosource, Camarillo, Calif.) in Carbonate-bicarbonate buffer, pH9.4. After washing in PBS with 0.05% (w/v) Tween-20, the wells were blocked with 1% (w/v) BSA in PBS for 1 hour at room temperature. After washing, plates were incubated with transformed E. coli cell lysate diluted in the assay buffer (1% BSA and 0.05% Tween-20 in 10 mM PBS) for 2 hours at room temperature. Various concentrations of infliximab (0.5, 1 and 2 ng/ml) were used as positive anti-Human Kappa Light Chain Biotin/anti-penta-His Biotin control. Plates were washed and incubated with ImmunoPure Goat Anti-Human Kappa Chain, Biotin Conjugated (Cat. No. 31780, Pierce Biotechnology, Rockford, Ill.) and Penta-His Biotin Conjugate (Cat. No. 34440, QIAGEN, Valencia, Calif.) diluted 1:2000 in the assay buffer for 1 hour at room temperature. Following another washing step, plates were probed for 1 hour at room temperature with 100 μL/well of Streptavidin POD (Cat. No. 1089153, Roche Applied Science, Indianapolis, Ind.) diluted 1:4000 in the assay buffer. Plates were further washed and then incubated with 3,3′,5,5′-tetramentylbenzidine (TMB, Cat. No. 34028, Pierce Biotechnology) for 30 minutes. Substrate development was stopped by addition of 100 μL/well TMB Stop Solution (Cat. No. 50-85-05, KPL, Gaithersburg, Md.) and the absorbance was measured at 450 nm via an automated plate spectrophotometer.
On the technique in general: ELISA stands for enzyme-linked immunosorbent assay.
B1: the binding result is listed as “binds”.

On to B2, for which the binding result is on record as “binds”.

B3: the binding result is “binds”.

For the molecule B4, the binding result is recorded as “binds”.

In the case of B5, the binding result is reported as “binds”.

In the case of B6, the binding result was “binds”.

For B7, the binding result is given as “binds”.

Take B8: the binding result is recorded as “binds”.

Consider B9, for which the binding result was “binds”.

B10: the binding result is recorded as “binds”.

As for B11, the binding result is on record as “binds”.

On to B12, for which the binding result is recorded as “binds”.

Consider B13, for which the binding result was “binds”.

For B14, the binding result is “binds”.

As for B15, the binding result is given as “binds”.
